{
  "source": "patent US6670183B2",
  "about": "“88kDa tumorigenic growth factor and antagonists” (A & G Pharmaceutical, Inc., priority 1997, dated 2003)",
  "molecules": {"B1": {"name": "rGP88: recombinant mouse GP88 expressed in baculovirus infected Sf9 insect cells; iodinated as binding ligand (protein)", "chain": "TQCPDGQFCPVACCLDQGGANYSCCNPLLDTWPRITSHHLDGSCQTHGHCPAGYSCLLTVSGTSSCCPFSKGVSCGDGYHCCPQGFHCSADGKSCFQMSDNPLGAVQCPGSQFECPDSATCCIMVDGSWGCCPMPQASCCEDRVHCCPHGASCDLVHTRCVSPTGTHTLLKKFPAQKTNSAVSLPFSVVCPDAKTQCPDDSTCCELPTGKYGCCPMPNAICCSDHLHCCPQDTVCDLIQSKCLSKNYTTDLLTKLPGYPVKEVKCDMEVSCPEGYTCCRLNTGAWGCCPFAKAVCCDDHIHCCPAGFQCHTEKGTCEMGILQVGWMKKVIAPLRLPDPQILKSDTPCDDFTRCPTNNTCCKLNSGDWGCCPIPEAVCCSDNQHCCPQGFTCLAQGYCQKGDTMVAGLEKIPARQTTPLQIGDIGCDQHTSCPVGQTCCPSLKGSWACCQLPHAVCCEDRQHCCPAGYTCNVKARTCEKDVDFIQPPVLLTLGPKVGNVECGEGHFCHDNQTCCKDSAGVWACCPYLKGVCCRDGRHCCPGGFHCSARGTKCLRKKIPRWDMFLRDPVPRPLL"}},
  "key": {"[1]": {"test_system": "mouse mammary epithelial cell line C57MG", "test": "DNA synthesis (^3H-thymidine incorporation) in serum-starved C57MG cells", "type": "cell-based", "protocol": "We investigated the effect of GP88 on the proliferation of a variety of cell lines including fibroblasts and mammary epithelial cells.\nThe ability of GP88 purified from PC cells (upper panel) and recombinant GP88, rGP88 (lower panel), to stimulate DNA synthesis in C57MG cells was measured by incorporation of ^3H-thymidine in serum-starved quiescent cells."}, "[2]": {"test_system": "GP88 cell surface receptors on CCL64 cells", "test": "^125I-GP88 binding to CCL64 cells, Scatchard analysis", "design": "species or system mink", "details": "2 hours at 25° C.", "protocol": "Recombinant GP88 (rGP88) was iodinated by the chloramine T method at 4° C. Other known methods can also be applied. Briefly, 1 μg of GP88 was incubated for 2 min with ^125I Na (100 μCi) that had been preincubated for 90 seconds with 2 μg chloramine T. The reaction was quenched with the addition of 100 μl saturated tyrosine, 10 μl of a 1% solution of bovine serum albumin (BSA) and 2 μg of sodium metabisulfite. After addition of 100 μl PBS, the iodinated protein was separated from free Na^125I by gel filtration on a Sephadex-G50 column that had been preincubated with PBS containing 1% bovine serum albumin and then extensively washed with PBS to reduce non-specific binding. The labeled proteins were eluted with PBS and fractions monitored for radioactivity. Amount of incorporated radioactivity was estimated by TCA precipitation. Specific activity of ^125I-GP88 was typically 30-50 μCi/μg. […]\nThe example provided here describes binding assay with the mink lung epithelial cell line CCL64 but has also been applied to several cell lines including the 1246, PC cell lines and the mammary epithelial cell line C57MG. […] The cells were harvested by centrifugation, washed with culture medium and counted with a hemocytometer. […] Cell pellets were counted with a gamma counter. […]"}},
  "note": "Like-named read-outs stand apart in the source and are kept apart here.",
  "data": [
    {"molecule": "B1", "values": [
      {"measurement": "increase in DNA synthesis", "setting": "[1]; 150 ng/ml (2 nM)", "result": 5, "unit": "fold"},
      {"measurement": "biological activity compared with PC cell derived GP88", "setting": "[1]; FIG. 6", "result": "identical to that of GP88 purified from PC cells"},
      {"measurement": "Kd", "setting": "[2]; read-out: Kd, high affinity class of receptors", "result": 0.043, "unit": "nM"},
      {"measurement": "Kd", "setting": "[2]; read-out: Kd, low affinity class of receptors", "result": 3.9, "unit": "nM"}
    ]}
  ]
}
